According to paper PMC3024951 (Molecular Brain, 2011):
Bridges are numbered along the chain shown (N, C = ends). Where no end group is shown, it is not given here.

T1: Extracellular IL-6R (interleukin-6 receptor) (UniProt P08887 20-365)
T1 construct: also called soluble extracellular IL-6R; source: bought: PeproTech
T1 sequence: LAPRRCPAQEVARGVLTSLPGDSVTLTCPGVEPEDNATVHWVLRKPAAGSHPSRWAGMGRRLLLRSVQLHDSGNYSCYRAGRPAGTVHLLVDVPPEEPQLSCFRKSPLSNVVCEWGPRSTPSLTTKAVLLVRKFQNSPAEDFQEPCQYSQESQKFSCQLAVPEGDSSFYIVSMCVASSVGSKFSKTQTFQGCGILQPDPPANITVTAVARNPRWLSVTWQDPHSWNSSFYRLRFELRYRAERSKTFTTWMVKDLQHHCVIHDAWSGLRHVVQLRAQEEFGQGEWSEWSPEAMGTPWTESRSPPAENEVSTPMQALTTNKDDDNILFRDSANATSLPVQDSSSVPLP

B1: R10-13 (designed binder)
chain: LVCYQLLACRPGTLETCPDDFTCVATRHTLGHNLTQYCSHAHAIPTPRARTGCCQTDKCNG
B2: R10-15 (designed binder)
chain: LVCYQLLACRPGTLETCPDDFTCVATRHTLGHNLTQYCSHAYAIPACETPASCCQTDKCNG

How the values were obtained:
[1] = molecular target: T1, Extracellular IL-6R (interleukin-6 …); assay: ELISA; […] (200 nM), 30 min; […]; details: both partners purified
[2] = molecular target: T1, Extracellular IL-6R (interleukin-6 …); assay: ELISA; competitive inhibition: 45 nM biotinylated IL-6 and 1 nM-2 μM protein/peptide with IL-6R coated beads (350 nM) in PBS-BSA, 25°C, 1 h; detected with SA-HRP; details: both partners purified
[3] = molecular target: T1, Extracellular IL-6R (interleukin-6 …); assay: cell-based or functional assay
[4] = molecular target: Extracellular IL-6R (interleukin-6 receptor) (UniProt P08887)

Binder	Kd [1] [nM]	IC50 [2] [nM]	IC50, inhibition of the IL-6 dependent proliferation of DS-1 cells (IL-6 with IL-6R) [3] [nM]	EC50 (ED50), proliferation of DS-1 cells in the absence of IL-6 [4] [nM]
B1	48 ± 8	113 ± 7	1400	
LVCYAPLPYTPGTLETGPDDFTCV (disulfide 3-23) [14-L1]				30
B2	115 ± 9	102 ± 13		
